Test results: publication PMC10866885

Experiments:
[1] = target: VEGFR1 C471R mutant fused to mCherry (human) (UniProt P17948)
[2] = target: wild-type human VEGFR1 fused to mCherry (human) (UniProt P17948)

- diffusion coefficient (D confocal) of VEGFR1 C471R-mCherry on the plasma membrane of CHO cells by FRAP after 100 nM VEGF165, read as receptor dimerization [1]: 0.017 µm^2 s^−1
- diffusion coefficient (D confocal) of VEGFR1-mCherry on the plasma membrane of CHO cells by FRAP after 100 nM VEGF165, read as receptor dimerization [2]: 0.018 µm^2 s^−1
Substance: VEGF165 (ligand)
